The target of this assay is FcαRI (CD89) (human (endogenous in primary monocytes)) (UniProt P24071).
UniProt P24071, sequence (P24071 22-287): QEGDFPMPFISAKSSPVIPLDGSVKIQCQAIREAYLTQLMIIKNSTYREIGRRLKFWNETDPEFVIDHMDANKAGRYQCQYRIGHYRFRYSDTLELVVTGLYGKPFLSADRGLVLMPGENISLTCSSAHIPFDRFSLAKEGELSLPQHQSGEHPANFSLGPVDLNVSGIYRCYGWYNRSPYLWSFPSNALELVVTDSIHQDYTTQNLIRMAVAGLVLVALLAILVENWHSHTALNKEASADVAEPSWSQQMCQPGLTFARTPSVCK

Take CH31 dIgA2 (antibody): the percent blocking of IgA-mediated phagocytosis of 0.2 μm ConSgp140-conjugated beads by primary monocytes pre-incubated with 5 μg/ml anti-human CD89 mAb (MIP8a) amounted to 91.5%; the percent blocking of IgA-mediated phagocytosis of ConSgp140CFI-conjugated 1 μm beads by primary monocytes pre-incubated with anti-human CD89 mAb (MIP8a) at 1, 5 and 25 μg/ml (70%, 74%, 78%) is 78%.

Values taken from paper PMC5007037.
